# Laboratory results: patent US20050123911A1, “Method of mass spectrometry” (priority 2001, published 2005)
# Where “and” joins values, the source holds several entries; their conditions need not be identical. Identical values can stand only once. Gly∗ = not defined here; Ac∗ = not defined here
# What was measured:
# Trypsin = target: T1, Trypsin (Bos taurus, UniProt P00760); test: Incubation of single DiMaS peptides with trypsin, LC-MS analysis; assay type: biochemical; settings: for Cleaved sequence following incubation with trypsin (FIG. 13): mass spectrum; for Cleavage site on incubation with Trypsin / Cleaved fragment identified after incubation with Trypsin (Table 1): room temperature, 9 h; for Cleavage site on incubation with Trypsin: aliquot every 2 h, LC-MS; for Cleaved fragment identified after incubation with Trypsin (Table 1): HPLC/MS
# T1 construct: purchased Sigma T1426
# T1 sequence (P00760 24-246): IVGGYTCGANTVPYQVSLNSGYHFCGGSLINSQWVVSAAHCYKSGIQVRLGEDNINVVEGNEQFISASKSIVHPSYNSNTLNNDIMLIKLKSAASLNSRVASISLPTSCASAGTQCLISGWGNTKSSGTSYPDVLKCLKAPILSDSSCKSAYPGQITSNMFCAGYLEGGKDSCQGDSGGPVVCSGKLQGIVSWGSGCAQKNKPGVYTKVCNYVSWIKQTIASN
# Method: (§1) The peptide (10 μl of 1 mM in Acetonitrile) was treated with a solution of buffer (50 mM HEPES, 150 mM NaCl and 1 μM Zn^2+, 35 μl), and finally Trypsin was added (5 μl, 2.5 μM). The reaction was allowed to take place at room temperature for 9 h and an aliquot of solution was removed for LC-MS analysis.
# Peptides 4 and 10 were incubated with trypsin as described above and then analysed by HPLC/MS to give masses according to Table 1.
# Compounds 7(2) and 7(13) (10 μl in Acetonitrile) were treated with a solution of buffer (50 mM HEPES, 150 mM NaCl and 1 μM Zn^2+, 35 μl), and finally Trypsin was added (5 μl, 2.5 μM). The reaction was allowed to take place at room temperature for 9 h and an aliquot of solution was removed for LC-MS analysis every 2 h.
# [1] = target: T2, neutral endopeptidase (NEP) (Homo sapiens, UniProt P08473); test: Incubation of DiMaS peptides with NEP, LC-MS analysis; assay type: biochemical; settings: room temperature, 9 h, HPLC/MS
# T2 construct: purchased BioMep
# Method: as §1, with “neutral endopeptidase (NEP)” for “Trypsin”
# Peptides 4, 6 and 10 were incubated with NEP as described above and then analysed by HPLC/MS to give masses according to Table 1.
# T2 sequence (P08473 whole entry, species assumed): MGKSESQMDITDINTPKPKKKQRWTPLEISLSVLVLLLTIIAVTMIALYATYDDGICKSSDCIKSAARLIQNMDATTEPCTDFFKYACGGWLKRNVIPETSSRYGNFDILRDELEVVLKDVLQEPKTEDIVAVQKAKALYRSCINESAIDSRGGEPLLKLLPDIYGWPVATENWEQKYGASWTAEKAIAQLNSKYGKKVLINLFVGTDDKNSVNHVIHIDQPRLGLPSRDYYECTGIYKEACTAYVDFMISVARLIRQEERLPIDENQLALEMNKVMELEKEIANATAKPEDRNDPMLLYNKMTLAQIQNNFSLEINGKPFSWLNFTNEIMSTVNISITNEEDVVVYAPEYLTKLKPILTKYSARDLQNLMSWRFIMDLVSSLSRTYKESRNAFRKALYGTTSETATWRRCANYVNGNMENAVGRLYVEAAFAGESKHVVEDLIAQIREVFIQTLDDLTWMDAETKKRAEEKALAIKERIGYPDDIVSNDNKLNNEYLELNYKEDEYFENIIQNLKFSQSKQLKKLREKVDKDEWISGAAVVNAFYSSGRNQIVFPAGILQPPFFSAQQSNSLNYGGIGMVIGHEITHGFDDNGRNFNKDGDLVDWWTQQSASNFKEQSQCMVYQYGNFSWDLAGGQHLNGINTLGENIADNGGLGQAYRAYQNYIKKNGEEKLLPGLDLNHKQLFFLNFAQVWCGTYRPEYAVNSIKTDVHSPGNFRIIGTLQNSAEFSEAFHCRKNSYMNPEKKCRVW
substance,measurement,setting,value
"Ac-Gly* Ala Ala Phe Lys Arg Ala Gly Ala Ala Lys(Ac*)-NH2 ({Ac-Gly∗}-AAFKRAGAAK(Ac∗)-NH2; reading uncertain; also: isotope labels: Gly* with D2 or H2, Ac* with D3 or H3, printed as Ac-Gly* Ala Ala Phe Lys Arg Ala Gly Ala Ala Lys(Ac*)-NH2) [7(17)]",Cleaved sequence following incubation with trypsin (FIG. 13),Trypsin,Ac-Gly-Ala-Ala-Phe-Lys-Arg-OH
"Ac-Gly* Ala Gly Arg Ala Asn Ile Asp Phe Ala Lys(Ac*)-NH2 ({Ac-Gly∗}-AGRANIDFAK(Ac∗)-NH2; reading uncertain; also: isotope labels: Gly* with D2 or H2, Ac* with D3 or H3, printed as Ac-Gly* Ala Gly Arg Ala Asn Ile Asp Phe Ala Lys(Ac*)-NH2) [7(2)]",Cleaved sequence following incubation with trypsin (FIG. 13),Trypsin,H2N-Ala-Asn-Ile-Asp-Phe-Ala-Lys(ac)-NH2
same,Cleavage site on incubation with Trypsin,Trypsin,cleavage after the arginine residue
"Ac-Gly* Ala Phe Leu Ala Arg Asn Ile Asp Leu Lys(Ac*)-NH2 ({Ac-Gly∗}-AFLARNIDLK(Ac∗)-NH2; reading uncertain; also: isotope labels: Gly* with D2 or H2, Ac* with D3 or H3, printed as Ac-Gly* Ala Phe Leu Ala Arg Asn Ile Asp Leu Lys(Ac*)-NH2) [7(13)]",Cleavage site on incubation with Trypsin,Trypsin,cleavage after the arginine residue
"AcGly-Pro-Arg-Ala-Ala-Ala-Gly-NH2 (Ac-GPRAAAG-NH2; also: partly isotope-labelled (D in acetyl and a Gly), extent not given here) [Peptide 4]",Cleaved fragment identified after incubation with Trypsin (Table 1),Trypsin,"371, 374: AcGlyProArgOH and H2NalaAlaAlaGlyNH2"
same,Cleaved fragment identified after incubation with NEP (Table 1),[1],"AcGlyProArgAlaOH and 239, 241: H2NAlaAlaGlyNH2"
"AcHis-His-Gln-Lys-Leu-Val-Phe-Phe-Ala-Gly-NH2 (Ac-HHQKLVFFAG-NH2; also: partly isotope-labelled (D in acetyl and a Gly), extent not given here) [Peptide 10]",Cleaved fragment identified after incubation with Trypsin (Table 1),Trypsin,"591, 594 AcHisHisGlnLysOH and H2NleuValPhePheAlaGlyNH2"
same,Cleaved fragment identified after incubation with NEP (Table 1),[1],"AcHisHisGlnLysLeuOH and 315, 317: NH2PheAlaGlyNH2"
"AcSer-Glu-Val-Asn-Leu-Asp-Ala-Glu-Phe-Gly-NH2 (Ac-SEVNLDAEFG-NH2; also: partly isotope-labelled (D in acetyl and a Gly), extent not given here) [Peptide 6]",Cleaved fragment identified after incubation with NEP (Table 1),[1],H2NleuAspAlaGluPheGlyNH2
